Reference: the Human Domainome abundance scans (Beltran et al. 2025)
± gives the uncertainty stated by the source.

B1: PDZ and LIM domain protein 2, residues 284 to 339; numbered along this chain, Q96JY6 (parent)
chain: HTCEKCSTSIANQAVRIQEGRYRHPGCYTCADCGLNLKMRGHFWVGDELYCEKHAR

Variants of: B1
Test: abundance fitness (aPCA) (normalised: wild type 0, dead -1); higher = more abundant; growth selection in yeast, the domain comes from the species named
Conditions: Homo sapiens

Variant | abundance fitness
HTCEKCSTSIANQAVRIQEGRYRHPGCYTCADCGLSLKMRGHFWVGDELYCEKHAR | -0.038 ± 0.077
HTCEKCSTSIANQAVRIQEGRYRHPGCYTCADCGLFLKMRGHFWVGDELYCEKHAR | -0.189 ± 0.093
HTCEKCSTSIANQAVRIQEGRYRHPGCYTCADCGLHLKMRGHFWVGDELYCEKHAR | -0.275 ± 0.18
HTCEKCSTSIANQAVRIQEGRYRHPGCYTCADCGLALKMRGHFWVGDELYCEKHAR | -0.104 ± 0.06
HTCEKCSTSIANQAVRIQEGRYRHPGCYTCADCGLPLKMRGHFWVGDELYCEKHAR | 0.108 ± 0.13
HTCEKCSTSIANQAVRIQEGRYRHPGCYTCADCGLCLKMRGHFWVGDELYCEKHAR | -0.116 ± 0.083
HTCEKCSTSIANQAVRIQEGRYRHPGCYTCADCGLTLKMRGHFWVGDELYCEKHAR | -0.125 ± 0.061
HTCEKCSTSIANQAVRIQEGRYRHPGCYTCADCGLMLKMRGHFWVGDELYCEKHAR | -0.07 ± 0.084
HTCEKCSTSIANQAVRIQEGRYRHPGCYTCADCGLGLKMRGHFWVGDELYCEKHAR | -0.093 ± 0.067
HTCEKCSTSIANQAVRIQEGRYRHPGCYTCADCGLLLKMRGHFWVGDELYCEKHAR | -0.145 ± 0.069
HTCEKCSTSIANQAVRIQEGRYRHPGCYTCADCGLELKMRGHFWVGDELYCEKHAR | 0.099 ± 0.081
HTCEKCSTSIANQAVRIQEGRYRHPGCYTCADCGLILKMRGHFWVGDELYCEKHAR | -0.127 ± 0.16
HTCEKCSTSIANQAVRIQEGRYRHPGCYTCADCGLDLKMRGHFWVGDELYCEKHAR | -0.257 ± 0.16
HTCEKCSTSIANQAVRIQEGRYRHPGCYTCADCGLVLKMRGHFWVGDELYCEKHAR | -0.113 ± 0.059
HTCEKCSTSIANQAVRIQEGRYRHPGCYTCADCGLKLKMRGHFWVGDELYCEKHAR | -0.478 ± 0.12
HTCEKCSTSIANQAVRIQEGRYRHPGCYTCADCGLNDKMRGHFWVGDELYCEKHAR | -0.249 ± 0.14
HTCEKCSTSIANQAVRIQEGRYRHPGCYTCADCGLNSKMRGHFWVGDELYCEKHAR | -0.614 ± 0.12
HTCEKCSTSIANQAVRIQEGRYRHPGCYTCADCGLNRKMRGHFWVGDELYCEKHAR | -0.565 ± 0.076
HTCEKCSTSIANQAVRIQEGRYRHPGCYTCADCGLNWKMRGHFWVGDELYCEKHAR | -0.731 ± 0.17
HTCEKCSTSIANQAVRIQEGRYRHPGCYTCADCGLNCKMRGHFWVGDELYCEKHAR | -0.3 ± 0.13
HTCEKCSTSIANQAVRIQEGRYRHPGCYTCADCGLNGKMRGHFWVGDELYCEKHAR | -0.288 ± 0.075
HTCEKCSTSIANQAVRIQEGRYRHPGCYTCADCGLNHKMRGHFWVGDELYCEKHAR | -0.807 ± 0.17
HTCEKCSTSIANQAVRIQEGRYRHPGCYTCADCGLNMKMRGHFWVGDELYCEKHAR | -0.178 ± 0.1
HTCEKCSTSIANQAVRIQEGRYRHPGCYTCADCGLNTKMRGHFWVGDELYCEKHAR | -0.395 ± 0.12

Variant | abundance fitness
HTCEKCSTSIANQAVRIQEGRYRHPGCYTCADCGLNQKMRGHFWVGDELYCEKHAR | -0.599 ± 0.1
HTCEKCSTSIANQAVRIQEGRYRHPGCYTCADCGLNIKMRGHFWVGDELYCEKHAR | -0.322 ± 0.23
HTCEKCSTSIANQAVRIQEGRYRHPGCYTCADCGLNKKMRGHFWVGDELYCEKHAR | -0.502 ± 0.14
HTCEKCSTSIANQAVRIQEGRYRHPGCYTCADCGLNFKMRGHFWVGDELYCEKHAR | -0.262 ± 0.22
HTCEKCSTSIANQAVRIQEGRYRHPGCYTCADCGLNPKMRGHFWVGDELYCEKHAR | -0.442 ± 0.14
HTCEKCSTSIANQAVRIQEGRYRHPGCYTCADCGLNVKMRGHFWVGDELYCEKHAR | -0.109 ± 0.064
HTCEKCSTSIANQAVRIQEGRYRHPGCYTCADCGLNAKMRGHFWVGDELYCEKHAR | -0.601 ± 0.071
HTCEKCSTSIANQAVRIQEGRYRHPGCYTCADCGLNEKMRGHFWVGDELYCEKHAR | -0.407 ± 0.068
HTCEKCSTSIANQAVRIQEGRYRHPGCYTCADCGLNYKMRGHFWVGDELYCEKHAR | -0.38 ± 0.17
HTCEKCSTSIANQAVRIQEGRYRHPGCYTCADPGLNLKMRGHFWVGDELYCEKHAR | -0.757 ± 0.16
HTCEKCSTSIANQAVRIQEGRYRHPGCYTCADWGLNLKMRGHFWVGDELYCEKHAR | -0.765 ± 0.17
HTCEKCSTSIANQAVRIQEGRYRHPGCYTCADYGLNLKMRGHFWVGDELYCEKHAR | -0.823 ± 0.15
HTCEKCSTSIANQAVRIQEGRYRHPGCYTCADVGLNLKMRGHFWVGDELYCEKHAR | -0.885 ± 0.15
HTCEKCSTSIANQAVRIQEGRYRHPGCYTCADTGLNLKMRGHFWVGDELYCEKHAR | -0.747 ± 0.1
HTCEKCSTSIANQAVRIQEGRYRHPGCYTCADNGLNLKMRGHFWVGDELYCEKHAR | -0.741 ± 0.083
HTCEKCSTSIANQAVRIQEGRYRHPGCYTCADRGLNLKMRGHFWVGDELYCEKHAR | -0.964 ± 0.086
HTCEKCSTSIANQAVRIQEGRYRHPGCYTCADSGLNLKMRGHFWVGDELYCEKHAR | -0.828 ± 0.11
HTCEKCSTSIANQAVRIQEGRYRHPGCYTCADGGLNLKMRGHFWVGDELYCEKHAR | -0.682 ± 0.061
HTCEKCSTSIANQAVRIQEGRYRHPGCYTCADHGLNLKMRGHFWVGDELYCEKHAR | -0.709 ± 0.12
HTCEKCSTSIANQAVRIQEGRYRHPGCYTCADMGLNLKMRGHFWVGDELYCEKHAR | -0.947 ± 0.079
HTCEKCSTSIANQAVRIQEGRYRHPGCYTCADLGLNLKMRGHFWVGDELYCEKHAR | -0.549 ± 0.084
HTCEKCSTSIANQAVRIQEGRYRHPGCYTCADCGLNLWMRGHFWVGDELYCEKHAR | -0.445 ± 0.13
HTCEKCSTSIANQAVRIQEGRYRHPGCYTCADCGLNLGMRGHFWVGDELYCEKHAR | 0.103 ± 0.056
HTCEKCSTSIANQAVRIQEGRYRHPGCYTCADCGLNLTMRGHFWVGDELYCEKHAR | -0.115 ± 0.12

Variant | abundance fitness
HTCEKCSTSIANQAVRIQEGRYRHPGCYTCADCGLNLIMRGHFWVGDELYCEKHAR | -0.703 ± 0.22
HTCEKCSTSIANQAVRIQEGRYRHPGCYTCADCGLNLQMRGHFWVGDELYCEKHAR | -0.263 ± 0.16
HTCEKCSTSIANQAVRIQEGRYRHPGCYTCADCGLNLAMRGHFWVGDELYCEKHAR | 0.189 ± 0.1
HTCEKCSTSIANQAVRIQEGRYRHPGCYTCADCGLNLNMRGHFWVGDELYCEKHAR | -0.124 ± 0.15
HTCEKCSTSIANQAVRIQEGRYRHPGCYTCADCGLNLCMRGHFWVGDELYCEKHAR | -0.24 ± 0.083
HTCEKCSTSIANQAVRIQEGRYRHPGCYTCADCGLNLLMRGHFWVGDELYCEKHAR | -0.702 ± 0.1
HTCEKCSTSIANQAVRIQEGRYRHPGCYTCADCGLNLEMRGHFWVGDELYCEKHAR | 0.311 ± 0.071
HTCEKCSTSIANQAVRIQEGRYRHPGCYTCADCGLNLVMRGHFWVGDELYCEKHAR | -0.447 ± 0.098
HTCEKCSTSIANQAVRIQEGRYRHPGCYTCADCGLNLRMRGHFWVGDELYCEKHAR | -0.366 ± 0.076
HTCEKCSTSIANQAVRIQEGRYRHPGCYTCADCGLNLMMRGHFWVGDELYCEKHAR | -0.08 ± 0.098
HTCEKCSTSIANQAVRIQEGRYRHPGCYTCADCGLNLSMRGHFWVGDELYCEKHAR | 0.056 ± 0.076
HTCEKCSTSIANQAVRIQEGRYRHPGCYTCADCGLNLHMRGHFWVGDELYCEKHAR | -0.197 ± 0.16
HTCEKCSTSIANQAVRIQEGRYRHPGCYTCADCGLNLFMRGHFWVGDELYCEKHAR | -0.495 ± 0.17
HTCEKCSTSIANQAVRIQEGRYRHPGCYTCADCLLNLKMRGHFWVGDELYCEKHAR | -0.165 ± 0.064
HTCEKCSTSIANQAVRIQEGRYRHPGCYTCADCFLNLKMRGHFWVGDELYCEKHAR | -0.196 ± 0.13
HTCEKCSTSIANQAVRIQEGRYRHPGCYTCADCNLNLKMRGHFWVGDELYCEKHAR | 0.108 ± 0.13
HTCEKCSTSIANQAVRIQEGRYRHPGCYTCADCCLNLKMRGHFWVGDELYCEKHAR | -0.413 ± 0.1
HTCEKCSTSIANQAVRIQEGRYRHPGCYTCADCQLNLKMRGHFWVGDELYCEKHAR | -0.03 ± 0.12
HTCEKCSTSIANQAVRIQEGRYRHPGCYTCADCKLNLKMRGHFWVGDELYCEKHAR | 0.073 ± 0.089
HTCEKCSTSIANQAVRIQEGRYRHPGCYTCADCILNLKMRGHFWVGDELYCEKHAR | -0.352 ± 0.2
HTCEKCSTSIANQAVRIQEGRYRHPGCYTCADCTLNLKMRGHFWVGDELYCEKHAR | -0.177 ± 0.1
HTCEKCSTSIANQAVRIQEGRYRHPGCYTCADCALNLKMRGHFWVGDELYCEKHAR | -0.09 ± 0.09
HTCEKCSTSIANQAVRIQEGRYRHPGCYTCADCYLNLKMRGHFWVGDELYCEKHAR | -0.331 ± 0.13
HTCEKCSTSIANQAVRIQEGRYRHPGCYTCADCPLNLKMRGHFWVGDELYCEKHAR | -0.356 ± 0.073

Variant | abundance fitness
HTCEKCSTSIANQAVRIQEGRYRHPGCYTCADCRLNLKMRGHFWVGDELYCEKHAR | -0.064 ± 0.084
HTCEKCSTSIANQAVRIQEGRYRHPGCYTCADCSLNLKMRGHFWVGDELYCEKHAR | 0.024 ± 0.076
HTCEKCSTSIANQAVRIQEGRYRHPGCYTCADCELNLKMRGHFWVGDELYCEKHAR | -0.146 ± 0.16
HTCEKCSTSIANQAVRIQEGRYRHPGCYTCADCWLNLKMRGHFWVGDELYCEKHAR | -0.799 ± 0.14
HTCEKCSTSIANQAVRIQEGRYRHPGCYTCADCHLNLKMRGHFWVGDELYCEKHAR | 0.2 ± 0.17
HTCEKCSTSIANQAVRIQEGRYRHPGCYTCADCGGNLKMRGHFWVGDELYCEKHAR | 0.053 ± 0.081
HTCEKCSTSIANQAVRIQEGRYRHPGCYTCADCGWNLKMRGHFWVGDELYCEKHAR | -0.054 ± 0.088
HTCEKCSTSIANQAVRIQEGRYRHPGCYTCADCGTNLKMRGHFWVGDELYCEKHAR | 0.167 ± 0.11
HTCEKCSTSIANQAVRIQEGRYRHPGCYTCADCGPNLKMRGHFWVGDELYCEKHAR | -0.518 ± 0.14
HTCEKCSTSIANQAVRIQEGRYRHPGCYTCADCGSNLKMRGHFWVGDELYCEKHAR | 0.005 ± 0.07
HTCEKCSTSIANQAVRIQEGRYRHPGCYTCADCGMNLKMRGHFWVGDELYCEKHAR | 0.102 ± 0.12
HTCEKCSTSIANQAVRIQEGRYRHPGCYTCADCGVNLKMRGHFWVGDELYCEKHAR | 0.053 ± 0.064
HTCEKCSTSIANQAVRIQEGRYRHPGCYTCADCGNNLKMRGHFWVGDELYCEKHAR | 0.062 ± 0.14
HTCEKCSTSIANQAVRIQEGRYRHPGCYTCADCGANLKMRGHFWVGDELYCEKHAR | 0.102 ± 0.072
HTCEKCSTSIANQAVRIQEGRYRHPGCYTCADCGYNLKMRGHFWVGDELYCEKHAR | 0.01 ± 0.12
HTCEKCSTSIANQAVRIQEGRYRHPGCYTCADCGINLKMRGHFWVGDELYCEKHAR | 0.05 ± 0.082
HTCEKCSTSIANQAVRIQEGRYRHPGCYTCADCGENLKMRGHFWVGDELYCEKHAR | 0.086 ± 0.086
HTCEKCSTSIANQAVRIQEGRYRHPGCYTCADCGRNLKMRGHFWVGDELYCEKHAR | -0.187 ± 0.074
HTCEKCSTSIANQAVRIQEGRYRHPGCYTCADCGDNLKMRGHFWVGDELYCEKHAR | 0.202 ± 0.087
HTCEKCSTSIANQAVRIQEGRYRHPGCYTCADCGCNLKMRGHFWVGDELYCEKHAR | -0.214 ± 0.14
HTCEKCSTSIANQAVRIQEGRYRHPGCYTCADCGHNLKMRGHFWVGDELYCEKHAR | -0.015 ± 0.089
HTCEKCSTSIANQAVRIQEGRYRHPGCYTCADCGFNLKMRGHFWVGDELYCEKHAR | 0.178 ± 0.13
